Where two headings read alike, the source gives them in different places.
Tested on: HBEGF locus
Assay type: cell-based, human
[1] = repressor domain in dXR, repression of the HBEGF gene, abundance of domain in library after vs before diphtheria toxin selection
[2] = high-throughput screen of dXR repression of the HBEGF gene, change in abundance of each domain in the library before and after diphtheria toxin selection

B1: DOMAIN_8460 (protein, listed as Peromyscus maniculatus)
chain: MNAVTYDDVHVDFTWDEWALLDPSQKNLYKNVMLETYRNLTAIGYKWEEHNINEKFQRSRRNRRHERSHTGEKSYECNQCG
**Q.** For B1, which “Log2 (fold change)” value [1] is on record?
**A.** 3.1352

B2: DOMAIN_8492 (protein, listed as Mus musculus)
chain: RERLVSFEDVTVDFSQEEWRRLDSVQRHLYQDVMLEIYSHLLAVGYPVPSPGAIFRIKKRKEARTGEAKLPHPCWCQEVES
**Q.** Which “Log2 (fold change)” value [1] does the source give for B2 here?
**A.** 3.3107

B3: DOMAIN_8545 (protein, listed as Rattus norvegicus)
chain: APLPLTFEDVAIYFSEQEWQHLETWQKELYKQVMRTNYETLISLDNGLPKPELISWMELGRENFGSWGEGQKVDRGIRCSV
**Q.** How did the “Log2 (fold change)” value [1] turn out when B3 was run?
**A.** 3.1044

B4: DOMAIN_8555 (protein, listed as Cricetulus griseus)
chain: MAFEDVAVYFSQEEWVFLDAAQRALYRHVMLENFALVDSIGLSISRPRVIIQLQRGEEPWVPNRTNTGPGRGTRRRPSLGS
**Q.** For B4, which “Log2 (fold change)” value [1] is on record?
**A.** 3.2852

B5: DOMAIN_8618 (protein, listed as Mesocricetus auratus)
chain: MESVSFEDVAVNFTPEEWALLNSSQKRLHRDVMQENFRNLAAIAKNQEDPTLEDDYEYLRKILPFAVQTGYRLCENQDYAE
**Q.** With B5 as the molecule, how does the “Log2 (fold change)” value [1] read?
**A.** 2.6363

B6: DOMAIN_8712 (protein, listed as Mesocricetus auratus)
chain: PADRDAVTYDDVHIGFTQEEWVLLNPSQKSLYKDVMLDTYRNLTAIGYRWQDHNIEEHCENSRRHRRKFSCTTKPYESLQN
**Q.** For B6, which “Log2 (fold change)” value [1] is on record?
**A.** 2.7776

B7: DOMAIN_8742 (protein, listed as Peromyscus maniculatus)
chain: MGSVSFEDISLDFTWDEWQDLDSAQRTLYRDVMLENYSSLMFLGHCTTKPELIFKLEHGFGPWSLAEASIQSLPGVHKMTV
**Q.** B7 was tested. Which “Log2 (fold change)” value [1] did it give?
**A.** 2.3354

B8: DOMAIN_8746 (protein, listed as Mesocricetus auratus)
chain: SQGLVTFGDVAVVFSQEEWEWLSSEQRSLYWRVMLDNYRNLASLGLCASKPDMIALLEQGKDPCVLKRKTARGLRPDLEAV
**Q.** With B8 as the molecule, how does the “Log2 (fold change)” value [1] read?
**A.** 3.317

B9: DOMAIN_8862 (protein)
chain: TLGLLSFNDVSLEFSWEEWQLLDSAQRYLYREVILENYSNLLSVGYHGTKPDLIFRLEQGEEPWILNAKMSTQNCPEVWED
modifications: Marmota monax
**Q.** With B9 as the molecule, how does the “Log2 (fold change)” value [1] read?
**A.** 2.3521

B10: DOMAIN_8881 (protein, listed as Cricetulus griseus)
chain: MAFEDVAVYFSQEEWVFLDAAQRALYRHVMLENFALVDSIGLSISRPRVIIQLQRGEEPWVSNRTNTGPGRGTRRRPSLGS
**Q.** For B10, which “Log2 (fold change)” value [1] is on record?
**A.** 3.743

B11: DOMAIN_8953 (protein, listed as Mus caroli)
chain: MNGMTYDDVHVNFTGEEWALLSPSQKRLYKDVMLETYRNLTAIGYSWEDRNIEEHFQRSRRHGRHERSHTGENPSVYTQCN
**Q.** B11 was tested. Which “Log2 (fold change)” value [1] did it give?
**A.** 2.5941

B12: DOMAIN_8982 (protein, listed as Mesocricetus auratus)
chain: MGAVTYDDVHINFTQEEWALLNPSQKRLYKDVMHDTYSNLTATGYSLEDHYIEEHCQSSRRCRRHLQRHKKVHIGEKPYES
**Q.** B12 was tested. Which “Log2 (fold change)” value [1] did it give?
**A.** 3.1585

B13: DOMAIN_9119 (protein, listed as Mesocricetus auratus)
chain: FQNSLTFDDVAVDFTQEEWVLMDQTQRDLYREVMLENYQNLFSAGCEITKPSLISWLEEDLQIGQREDFQEWEMQDTLREQ
**Q.** For B13, which “Log2 (fold change)” value [1] is on record?
**A.** 2.2985

B14: DOMAIN_9141 (protein, listed as Mus caroli)
chain: LNSAVTYDDVNVNFTREEWALLDSSQKSLYKDVMLETYRNLTAIGYNWEGHNIEEHCQSSRRHARTHKRTHTGEKSYECDQ
**Q.** B14 was tested. Which “Log2 (fold change)” value [1] did it give?
**A.** 3.035

B15: DOMAIN_9217 (protein, listed as Mesocricetus auratus)
chain: MAFEDVAVYFSQEEWMFLDAAQRALYRHVMLENFALVDSIGLSVSRPRVIIQLQRGEEPWVPNRTNPGPGRSTCRRPSLGS
**Q.** B15 was tested. Which “Log2 (fold change)” value [1] did it give?
**A.** 3.8919

B16: DOMAIN_9303 (protein)
chain: FKGPVTFKDVTVEFTKEEWKLLTPAQRTLYKDVMLENYNHLVSVGYRVSKPNLVFKLKQGKEPWVLEVEFPRRRCPEELWN
modifications: Marmota monax
**Q.** Which “Log2 (fold change)” value [1] does the source give for B16 here?
**A.** 2.5344

B17: DOMAIN_9329 (protein, listed as Peromyscus maniculatus)
chain: NAVTYNDVHVDFTQEEWALMDPSQRNLYKDVMVETYMNLTAIGYNWEDLEVEEHCQNSLKHGRHKRPHTTEKSCEYMGCGK
**Q.** With B17 as the molecule, how does the “Log2 (fold change)” value [1] read?
**A.** 4.263

B18: DOMAIN_9332 (protein, listed as Peromyscus maniculatus)
chain: TENAVTYDDVHVGFTWEEWALLDPSQKNLYKDVMLDTYRNLTTIGYSWEGHNIEEHFQSSRRHERHKRSDTGENSSVYTQC
**Q.** With B18 as the molecule, how does the “Log2 (fold change)” value [1] read?
**A.** 3.9002

B19: DOMAIN_9960 (protein, listed as Octodon degus)
chain: AVTMEDVTVTFTNEEWALLNPAQKRLYGDVMWETFRTISAIGRTWDSQQMEEEYKNYLRNLSNEEVAKCCRYTTFNQHENI
**Q.** For B19, which “Log2 (fold change)” value [2] is on record?
**A.** 3.4751

B20: DOMAIN_9489 (protein, listed as Dipodomys ordii)
chain: LASISFEDLAVTFTEEEWEHLDLGQRNLYQEVMLETYQLLVSLGDQVRLAPPTPGTPLPALPAQPRLLGLPSQPLDRRGTP
**Q.** How did the “Log2 (fold change)” value [1] turn out when B20 was run?
**A.** 3.0215

B21: DOMAIN_9541 (protein, listed as Dipodomys ordii)
chain: SQGLVTFEDVAVYFSLEEWERLNVEQRALYQEVMQGNYGILVSLGYPIPKPDLIFRLEQGEEPWVPDSPHPEEGDIVTGVY
**Q.** Which “Log2 (fold change)” value [1] does the source give for B21 here?
**A.** 2.8442

B22: DOMAIN_10277 (protein, listed as Dipodomys ordii)
chain: SNKLVSFDDVAVEFSWEEWQELDISQRTLYRDVMLETYSMLVSLGHTGPKPQLIVKLEQDEESYMREASDKNFSDVQKMKH
**Q.** With B22 as the molecule, how does the “Log2 (fold change)” value [2] read?
**A.** 2.8257

B23: DOMAIN_9559 (protein, listed as Mus caroli)
chain: MGLVSFEDIAVYFNLEEWQDLDTAQRTLYRDVMLETYSSLVFLDPCIAKPKLIFNLERGFGPWSLAEASSRSLPGVHNVST
**Q.** B23 was tested. Which “Log2 (fold change)” value [1] did it give?
**A.** 3.327

B24: DOMAIN_9617 (protein, listed as Mesocricetus auratus)
chain: LQDSVTFKDVAVDFSQEEWERLNPAQRSLYRTVVLENYWNLVSVGACVSKSHLISLLEHGKAPWDMRGEVTESTSQDGESV
**Q.** For B24, which “Log2 (fold change)” value [1] is on record?
**A.** 2.4034

B25: DOMAIN_9706 (protein, listed as Octodon degus)
chain: SPVLVSFDDVFVSFTREEWQVLDNAQRALYGDVMLETYRSLVLLGQCITKPEVIFKLEQGVEPWTGGEPHNQSPPDVQEVD
**Q.** With B25 as the molecule, how does the “Log2 (fold change)” value [1] read?
**A.** 2.821

B26: DOMAIN_9716 (protein, listed as Mus caroli)
chain: PKVTVSFEDVSVYFTKTEWKLLDLKQRNLYKQVMLENYSHLVSVGFAFSKPNLVSQLERGEKPWIRDDRMESAARSRAGNR
**Q.** For B26, which “Log2 (fold change)” value [1] is on record?
**A.** 2.9009

B27: DOMAIN_9858 (protein, listed as Mesocricetus auratus)
chain: MDAVTYDDVHINFTLEEWALLNPSQKSLYKDVMLDTYRNLTAIGYSWDDHNIEEICQSSRSHRRHLQRHAKINTGEKPYGS
**Q.** With B27 as the molecule, how does the “Log2 (fold change)” value [1] read?
**A.** 3.0047

B28: DOMAIN_9993 (protein, listed as Rattus norvegicus)
chain: DVVTYEDVHVNFTQEEWALLDPSQKRLYKVVMLETYKNLSAIGYIWEDHTIEQHFQSSRSHGRHKRHRTGEQPSELIQHGK
**Q.** With B28 as the molecule, how does the “Log2 (fold change)” value [1] read?
**A.** 2.7601

B29: DOMAIN_10057 (protein, listed as Mus musculus)
chain: MDALTFDDVHVHFTREEWSLLDPSQKRLYKDVMLEIYKNLTAIGYKWKDHNVGEHSQNDRRYGRHERSPAGENHNEYTQCD
**Q.** How did the “Log2 (fold change)” value [1] turn out when B29 was run?
**A.** 2.2961

B30: DOMAIN_10241 (protein, listed as Octodon degus)
chain: PTAPVAFSDLTICFSQEEWGWLSPTQKLLYEEVMLENYQNLVSVGLCTRKPHIITLLEKGKDPWIAEPLRKRGGPDPASRY
**Q.** Which “Log2 (fold change)” value [1] does the source give for B30 here?
**A.** 3.5766

B31: DOMAIN_10359 (protein)
chain: AQGLMAFEDVAVYFSREEWGLLDAAQRALYRRVMLENFTLLASLGLSVSRPHVVIQLECGKEPWVLNGTDVTLARNAQRRP
modifications: Delphinapterus leucas
**Q.** With B31 as the molecule, how does the “Log2 (fold change)” value [1] read?
**A.** 2.9199

B32: DOMAIN_10573 (protein, listed as Cervus elaphus)
chain: SHTLVTFKDILVNFTREEWKLLDTAQQIMYKDVMLENYRNLVSLGHQLPKPDVILRLEKGEEPWLVEKEIHQETHPDLETP
**Q.** How did the “Log2 (fold change)” value [1] turn out when B32 was run?
**A.** 2.4077

B33: DOMAIN_10612 (protein)
chain: ALESVTFRDVAVFFSRDEWLHLNPAQRALYREVMLDNYSALLSLGILFSKPKVILQLEQGEDPWMVENGVSQSACLGWESL
modifications: Vicugna pacos
**Q.** B33 was tested. Which “Log2 (fold change)” value [1] did it give?
**A.** 2.4997

B34: DOMAIN_10763 (protein, listed as Mustela putorius)
chain: PKVPVSFEDVSVYFTKTEWKLLDVQQRILYKTVMLENYHHLVSLGCLSTKPHLVSWLEQGEGPWTTDIWRTPATAKTQTEG
**Q.** How did the “Log2 (fold change)” value [1] turn out when B34 was run?
**A.** 2.5924

B35: DOMAIN_10807 (protein, listed as Erinaceus europaeus)
chain: SQASVSFKDVTVEFTQDEWRLMSSAQRTLYREVMLENYSHLISMGYCSTKPELIFALEQKDFRESILERESLSTIPPEDFQ
**Q.** For B35, which “Log2 (fold change)” value [1] is on record?
**A.** 3.5237

B36: DOMAIN_10974 (protein)
chain: AQMLVTFEEVAVYFTQGQGALLGPAQRALYRDVMQENYEMVTSLGFSLPKPELISRLERGEEPWVPDLQACEKRESLRGAR
modifications: Chelonia mydas
**Q.** With B36 as the molecule, how does the “Log2 (fold change)” value [1] read?
**A.** 2.6444

B37: DOMAIN_11049 (protein, listed as Neophocaena asiaeorientalis)
chain: PQGCAISEDVFVYFSREEWVLLDEDQRLLYRDVMLENFALLASLGIASSRSHLVTQLEQGEEPWMPAQVDMTPATEKEAQK
**Q.** With B37 as the molecule, how does the “Log2 (fold change)” value [1] read?
**A.** 2.7072

B38: DOMAIN_11071 (protein, listed as Chrysochloris asiatica)
chain: SLEQVSFKDVCVDFTQEEWYLLDPAQKILYRDVILENYSNIVSVGHCGTKPEVIFKIEQGEEPWVLGEGFSSLQHPERNWK
**Q.** Which “Log2 (fold change)” value [1] does the source give for B38 here?
**A.** 3.1268
